This test addresses recombinant caprine β-lactoglobulin (unlabelled) (caprine) (UniProt P02756). In words: AUC.

The stoichiometry N is the number of molecules, sites or subunits per partner or assembly. For the substance “recombinant caprine β-lactoglobulin (unlabelled) (from UniProt P02756 19-180) (natural protein)”, the stoichiometry N worked out at 2.
